Experimental data published in patent US20030211076A1, “Compositions and methods for treatment of proliferative disorders” (priority 2003, published 2003).
Each block holds one molecule with its values, some of them ahead of it.

Molecular target: T1, lysyl oxidase (LO) (Bos taurus, UniProt P33072)
T1 construct: per mature LO molecule (32 kD); from tissue
T1 sequence (P33072 170-418): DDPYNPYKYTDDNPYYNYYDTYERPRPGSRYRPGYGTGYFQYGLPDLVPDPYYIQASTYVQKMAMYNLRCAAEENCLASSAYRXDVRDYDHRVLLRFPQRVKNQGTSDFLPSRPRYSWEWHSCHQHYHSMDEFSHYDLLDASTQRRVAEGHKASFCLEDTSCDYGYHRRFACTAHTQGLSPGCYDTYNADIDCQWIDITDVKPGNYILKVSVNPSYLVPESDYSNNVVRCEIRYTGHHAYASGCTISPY
Assay: LO-dependent H2O2 release, horseradish peroxidase-coupled fluorescence assay (substrate potential for LO)
Assay type: biochemical
Conditions: for substrate of LO (in words): factor as sole substrate, LO-dependent H2O2 release in vitro; for Oxidized Lysines per Molecule 37° C. / Oxidized Lysines per Molecule 55° C.: oxidation by LO in vitro; for Oxidized Lysines per Molecule 37° C.: 37° C. (molar ratio of H2O2 released per molecule of substrate)
Procedure: The oxidation of a primary amine substrate by LO yields stoichiometric amounts of the corresponding aldehyde, hydrogen peroxide and ammonia, as shown: RCH2NH2+O2+H2O→RCHO+H2O2+NH3 (Kagan, 1986). To assess the substrate potential of FGF2, LO-dependent H2O2 release was monitored in assays using FGF2 as the sole substrate, using both the optimum temperature for LO activity of 55° C. and the physiological temperature of 37° C. (Trackman et al., 1981).
LO reaction with FGF2 as a substrate was assessed by a horseradish peroxidase-coupled fluorescence assay for H2O2 production. Reaction mixtures contained 0.25 mg of sodium homovanillate(HVA), 40 μg of HRP, and FGF2 at doses as indicated below in 0.05 M sodium borate buffer, pH 8.2, in a final volume of 2 ml. Assays were initiated by the addition of LO to reaction mixtures. H2O2 release was continuously monitored at excitation and emission wavelengths of 315 and 425 nm, respectively, at a constant temperature of 55° C. or 37° C., as specified, in the thermostatted cuvette chamber of an SLM Aminco Bowman Series 2 Luminescence Spectrometer. All activity data were corrected for background rates of H2O2 release determined in complete assay mixtures supplemented with 200 μM BAPN, an irreversible inhibitor of LO. In FIG. 4, solid curves represent the time course of H2O2 release at 55° C. in the reaction of 0.16 μM LO with 0.23 (a), 0.45 (b) and 0.9 (c) μM FGF2, respectively. Dotted curve (d) represents the time course of H2O2 release in the reaction of 0.16 μM LO with 0.9 μM FGF2 at 37° C. The same data were obtained from three separate experiments.
Using the fluorometric assay (Trackman et al., 1981) to monitor LO-dependent H2O2 release in vitro, the substrate potential of other growth factors was also assessed. Major members of the FGF family tested included FGF 1, 4, 5, 6, 7 and EGF (note: All factors are human recombinant forms purchased from R & D Systems, Inc., Minneapolis, Minn.).
A human recombinant disulfide-linked dimer of VEGF165 (MW: 42 kDa)(R & D Systems) as a sole substrate was tested by using the standard in vitro LO catalysis assays as described above for FIG. 4 (Trackman et al., 1981). Curves represent the time course of H2O2 release at 55° C. (a) or 37° C. (b) in the reaction of 0.10 μM LO with 0.45 μM VEGF165. All activity data were corrected for background rates of H2O2 release determined in complete assay mixtures supplemented with the same amounts of LO preincubated with 100 μM BAPN for 15 min at 37° C. The same data were obtained from three separate experiments.
The standard in vitro LO catalysis assays as described above for FIG. 4 (Trackman et al., 1981) using human recombinant PDGF-AB (R & D Systems) as a sole substrate was tested. […] In FIG. 19, curves represent the time course of H2O2 release at 55° C. (a) and 37° C. (b) in the reaction of 0.11 μM LO with 0.46 μM PDGF-AB, respectively. All activity data were corrected for background rates of H2O2 release determined in complete assay mixtures supplemented with the same amounts of LO preincubated with 100 μM BAPN for 15 minutes at 37° C. The same data were obtained from three separate experiments.
To analyze the substrate potential of Tat, the standard in vitro LO catalysis assays as described in FIG. 4 (Trackman et al., 1981) was performed at the optimum temperature of 55° C. and at the physiological temperature of 37° C. A recombinant Tat with 9 lysines in a total of 86 amino acids was used as a sole substrate. FIG. 12A represents a dose and temperature-dependent response. Curves represent the time course of H2O2 release at 55° C. (solid) or 37° C. (dotted) in the reaction of 0.10 μM LO with 0.22 (a and d), 0.43 (b and e) and 0.85 (c and f) μM Tat, respectively. All activity data were corrected for background rates of H2O2 release determined in complete assay mixtures supplemented with the same amounts of LO preincubated with 100 μM BAPN for 15 min at 37° C. […]

- substrate of LO (in words): substrates of LO
- Oxidized Lysines per Molecule 37° C.: 3.1
- Oxidized Lysines per Molecule 55° C.: 7.2
B1: FGF6: human recombinant fibroblast growth factor 6 (R & D Systems) (protein, UniProt P10767 38-208, looked up)
Fibroblast growth factor 6: SPAGTRANNTLLDSRGWGTLLSRSRAGLAGEIAGVNWESGYLVGIKRQRRLYCNVGIGFHLQVLPDGRISGTHEENPYSLLEISTVERGVVSLFGVRSALFVAMNSKGRLYATPSFQEECKFRETLLPNNYNAYESDLYQGTYIALSKYGRVKRGSKVSPIMTVTHFLPRI

- substrate of LO (in words): substrates of LO
- Oxidized Lysines per Molecule 37° C.: 10.0
- Oxidized Lysines per Molecule 55° C.: 18.0
B2: FGF5: human recombinant fibroblast growth factor 5 (R & D Systems) (protein, UniProt P12034 21-268, looked up)
Fibroblast growth factor 5: HGEKRLAPKGQPGPAATDRNPRGSSSRQSSSSAMSSSSASSSPAASLGSQGSGLEQSSFQWSPSGRRTGSLYCRVGIGFHLQIYPDGKVNGSHEANMLSVLEIFAVSQGIVGIRGVFSNKFLAMSKKGKLHASAKFTDDCKFRERFQENSYNTYASAIHRTEKTGREWYVALNKRGKAKRGCSPRVKPQHISTHFLPRFKQSEQPELSFTVTVPEKKKPPSPIKPKIPLSAPRKNTNSVKYRLKFRFG

- substrate of LO (in words): substrates of LO
- Oxidized Lysines per Molecule 37° C.: 3.6
- Oxidized Lysines per Molecule 55° C.: 14.5
B3: FGF4: human recombinant fibroblast growth factor 4 (R & D Systems) (protein, UniProt P08620 31-206, looked up)
Fibroblast growth factor 4: APTAPNGTLEAELERRWESLVALSLARLPVAAQPKEAAVQSGAGDYLLGIKRLRRLYCNVGIGFHLQALPDGRIGGAHADTRDSLLELSPVERGVVSIFGVASRFFVAMSSKGKLYGSPFFTDECTFKEILLPNNYNAYESYKYPGMFIALSKNGKTKKGNRVSPTMKVTHFLPRL
